# Reference: the supplement of paper PMC9170038
# Tested on: MS2 coat protein
# Assay: apparent KD of MS2 coat protein; designed switch direction (-1 OFF switch, 1 ON switch): -1; higher = weaker reporter binding
# Outline: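 Designed RNA switches with common flanks were transcribed on Illumina chips by stalled E. coli RNA polymerase and titrated with SNAP-549-labelled MS2 coat protein, from 0.7 or 1.5 nM doubling to 3 µM, in Tris-HCl pH 7.5 buffer with KCl, MgCl2, BSA, DTT, tRNA and Tween-20. Steps lasted 0.8–1.5 h (lowest) to 10–20 min (highest). Titrations ran without input, with 200 uM small-molecule ligand, or with an oligonucleotide input. Normalised cluster fluorescence was curve-fitted, and apparent KD is the per-design median over clusters.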
# [1] = Eterna round: R95, input ligand: microRNA oligo, concentration not stated
# [2] = input ligand: microRNA oligo, concentration not stated
Sequence,apparent KD of MS2 coat protein [1] [nM],apparent KD of MS2 coat protein (input ligand: FMN 200 uM) [nM],apparent KD of MS2 coat protein (input ligand: none) [nM],apparent KD of MS2 coat protein [2] [nM],"apparent KD of MS2 coat protein (Eterna round: R95, input ligand: FMN 200 uM) [nM]","apparent KD of MS2 coat protein (Eterna round: R95, input ligand: none) [nM]"
AAUUUACAUGAGGAUCACCCAUGUGAGGAUAUGAUACUAUGUACUUCGGUACAUAGUAUCAGAAGGCAUGUGGG [Ex1-3: 93] (puzzle: Exclusion 1),19.1,,,,,
"AAUUUGCAAGCGAGAUCCCACAUGAGGAUCACCCAUGUGCUCGUCUUAUAAGGUACUGUGACGAUAGUCACGGUACC [Mat - Sensor, turn-off var - Eli Mod - D93] (Eterna round: R97, puzzle: Sensor, turn-off variant 1)",,14.1,14.3,,,
"ACAAAACAUGAGGAUCACCCAUGUGAGGAUAUGCGAAACAAACAAACAAACAAACAAAGCAGAAGGCACAACAA [Ex 1 Tesla 3] (Eterna round: R96, puzzle: Exclusion 1)",,,,15.6,,
"ACAAACAACAUAGGAUAUCUGCGGGUGUCAGUGCUCAUGGAUCUCCACAUGAGGAUCACCCAUGUAGAGAAGGAUGAACGCUUA [Retionzaan] (Eterna round: R96, puzzle: Exclusion NG 2)",,82.4,14.1,8.9,,
"ACAAACAGCUGAGGAUAUCACGAGCAAGGCCAGUGAGAAGGUAGCUCAAACAUGAGGAUCACCCAUGUUAAACUUCCUCAUGCG [Raisorar] (Eterna round: R96, puzzle: Exclusion NG 1)",,13.7,17.7,10.4,,
"ACAAGCGCGAAAGUCUUAUACAUGAGGAUCACCCAUGUUCUCAAGGUCUUAUGUACUGACACGAUUACUCGUCUUAU [AK-miRNA-r3-4] (Eterna round: R97, puzzle: Sensor, turn-off variant 1)",,117,112,,,
"ACAAGCUAAGUGCUCGGUCCGGGAGACACGUGAUCAGCGACAUGAGGAUCACCCAUGUAAUAGGAGCUUAAAACGUU [solution 46] (Eterna round: R96, puzzle: Sensor v2, turn-off variant 2)",,15,19.7,20.1,,
"ACAAGCUCUGUGGGUGGGUACAUGAGGAUCACCCAUGUUUUGCUCGUCUUGUGGGCCCGGGCCCGCGGCCCGGGCCC [-41.4, -69.7, A 12%] (Eterna round: R97, puzzle: Sensor, turn-off variant 1)",,604,1180,,,
"ACAAGCUUAGGUUUUCAUAACAUGAGGAUCACCCAUGUUCGUCUUAUAAAAAUAAAAAUAAAAAACAAAAAAUAAAA [Sensor V2: 66] (Eterna round: R96, puzzle: Sensor v2, turn-off variant)",,39.1,41.2,117,,
"ACAAGCUUGUAAUGAUUGAACAUGAGGAUCACCCAUGUAAAUGGAAGAACCAAUUUGAUAAGAUAUACUCGUCUUAU [JR_STOV1_Sub007] (Eterna round: R97, puzzle: Sensor, turn-off variant 1)",,57.8,59.1,,,
"ACAAGCUUUGAGUUCGUCUUAUACACUCCUAAUAAGAAAACAUGAGGAUCACCCAUGUAAGAAAUAAGAACUCAUGU [Sesor Array 3 - Jieux - Sensor v3, turn-off variant 2] (puzzle: Sensor v3, turn-off variant 2)",291,,,,25.5,27.8
"ACAAGCUUUUGCUCGUCUUACAUGAGGAUCACCCAUGUCGGGUGCUUGCUUACGUCCAGCAUCUGGACCGUAGCAGU [-24.6, -43.1 kcal, 19% A] (Eterna round: R97, puzzle: Sensor, turn-off variant 1)",,142,165,,,
